Data on 1 molecule can be found in publication doi:10.1101/2023.04.20.537738 (bioRxiv, 2023).

This experiment concerns the target SARS-CoV-2 HexaPro Spike (SARS-CoV-2, WA-1 / Wuhan-Hu-1 …, UniProt P0DTC2, stabilised, N-linked glycans (built in the model)). As to the kind of experiment: cryo-EM structure.

B1: STI-9167 Fab (therapeutically-modified version of FG-10A3) (Fab, V domains shown)
VH: QVQLVESGGGVVQPGRSLRLSCAASGFTFSSYGMNWVRQAPGKGLEWVAIIWYYGNNKYYVDSVKGRFTISRDNSKNTLYLQMNSLRAEDTAVYYCARKDYSKTYYGYYFDYWGQGTLVTVSS
VL: DIQMTQSPSSLSASVGDRVTITCRASQSIHSFLNWYQQKPGKPPNLLIYAASSLQSGLPSRFSGSGSGTDFTLTISSLQPEDFATYYCQQSYITPPTFGQGTKVEIK
On to B1, for which the binding result is on record as “binds”.
